Experimental data taken from article PMC11230438.

B1: N-TIMP2-PAT200 (protein)
chain: CSCSPVHPQQAFCNADVVIRAKAVSEKEVDSGNDIYGNPIKRIQYEIKQIKMFKGPEDIEFIYTAPSSAVCGVSLDVGGKKEYLIAGKAEGDGKMHITLCDFIVPWDTLSTTQKKSLNHRYQMGCEATPTPAPTAPTTPTPTPTTPAPTTPTTPATPAPTTPATPAPTPATPTPAAPAPTTPTPAAPAPTPATPTAPAPTTPTAPTAPTPATPATPAAPTPTPTTPTTPTAPAAPTPTAPTAPAPTAPTAPTAPATPAAPATPTPAPTAPATPTPAAPTTPTAPTPTPTPAPATPAAPAPTPATPAAPTTPAAPTAPAAPTTPTPT
B2: N-TIMP2-PAT100 (protein)
chain: CSCSPVHPQQAFCNADVVIRAKAVSEKEVDSGNDIYGNPIKRIQYEIKQIKMFKGPEDIEFIYTAPSSAVCGVSLDVGGKKEYLIAGKAEGDGKMHITLCDFIVPWDTLSTTQKKSLNHRYQMGCETAPAAPATPAPTAPTPTPAAPAPTTPATPAPTPAAPAPAPTAPTAPAAPTAPATPAAPTTPTPTTPTPATPTPTAPAPATPTTPTPTAPAAPTPAPTTPA
B3: N-TIMP2 (WT N-terminal domain of TIMP2 containing internal FLAG-tag, c-myc-tag and His-tag) (domain or fragment)
chain: CSCSPVHPQQAFCNADVVIRAKAVSEKEVDSGNDIYGNPIKRIQYEIKQIKMFKGPEDIEFIYTAPSSAVCGVSLDVGGKKEYLIAGKAEGDGKMHITLCDFIVPWDTLSTTQKKSLNHRYQMGCE

Target: high-stability mutant of the MMP-9 catalytic domain lacking the fibronectin-like domain (MMP9CAT*) (human) (UniProt P14780)
Experiment: enzymatic activity inhibition assay

| Ki [nM] | Binder |
| --- | --- |
| 0.59 | B1 |
| 0.24 | B2 |
| 0.32 | B3 |
